Measurements reported in US6291235.

Tests used:
[1] = target: rabbit muscle actin (rabbit) (UniProt P68135); experiment: surface plasmon resonance (BIAcore), F(ab)'2 immobilised, 0.3 µg rabbit muscle actin injected
[2] = target: A33 antigen on the surface of human colon cancer cells (human); experiment: rosetting assay on NCI-H508 cells
[3] = target: A33 antigen on the surface of human colon cancer cells (human); experiment: rosetting assay on SW403 cells
[4] = target: A33 antigen on the surface of human colon cancer cells (human); experiment: rosetting assay on SK-CO-17 cells
[5] = target: A33 antigen on the surface of human colon cancer cells (human); experiment: rosetting assay on LOVO cells
[6] = target: A33 antigen on the surface of human colon cancer cells (human); experiment: rosetting assay on LIM 1215 cells
[7] = target: A33 antigen on the surface of human colon cancer cells (human); experiment: rosetting assay on SK-CO-19 cells
[8] = target: A33 antigen on the surface of human colon cancer cells (human); experiment: rosetting assay on LS 180 cells
[9] = target: A33 antigen on the surface of human colon cancer cells (human); experiment: rosetting assay on LS 174T cells
[10] = target: A33 antigen on the surface of human colon cancer cells (human); experiment: rosetting assay on ASPC-1 (pancreatic) cells
[11] = target: A33 antigen on the surface of human colon cancer cells (human); experiment: rosetting assay on SNC-2B cells
[12] = target: A33 antigen on the surface of human colon cancer cells (human); experiment: rosetting assay on SW1222 cells
[13] = target: rabbit muscle actin (rabbit) (UniProt P68135); experiment: surface plasmon resonance (BIAcore), whole A33 immobilised, 0.3 µg rabbit muscle actin injected

“F(ab)'2 fragment of A33 humanized monoclonal antibody” showed a signal at the end of the injection pulse (RU) [1] of 4 RU.

In the case of “monoclonal antibody A33 (mAb A33), murine immunoglobulin, isotype IgG2a, secreted by hybridoma ATCC No. HB 8779”, the Rosetting A. Titer [2] is reported as 4096, the Rosetting A. Titer [3] is reported as 8192 and the Rosetting A. Titer [4] is reported as 512. It also gave a Rosetting A. Titer [5] of 4096, a Rosetting A. Titer [6] of 8192 and a Rosetting A. Titer [7] of 8192. The Rosetting A. Titer [8] was 2048, the Rosetting A. Titer [9] was 4096 and the Rosetting A. Titer [10] was 8192. It also gave a Rosetting A. Titer [11] of 4096 and a Rosetting A. Titer [12] of 4096.

“whole A33 (A33 IgG) immobilised on the biosensor surface (antibody)” was tested, and the signal at the end of the injection pulse (RU) [13] was 247 RU.
